Assay results published in the supplement of paper PMC10567573.
± gives the standard deviation.

Assay: protein stability index of a GFP-peptide fusion (GPS, HEK-293T) (PSI 1-6); higher = more stable
[1] = treatment: DMSO, c terminus: a fixed tail appended
[2] = treatment: MLN4924 1 uM, 8 h, c terminus: a fixed tail appended
[3] = treatment: DMSO, c terminus: native
[4] = treatment: MLN4924 1 uM, 8 h, c terminus: native
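Also: 24-mer peptide tiles fused after GFP, lentivirally expressed, FACS-sorted into six equal bins by GFP/DsRed ratio, decoded by Illumina sequencing, PSI is the read-weighted mean bin number.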

| Sequence | protein stability index [1] | protein stability index [2] | protein stability index [3] | protein stability index [4] |
| --- | --- | --- | --- | --- |
| SRASAARVGQLQEALNERHSIINA [LRRC45] | 4.01 ± 0.38 | 3.97 ± 0.19 |  |  |
| SRCRNSYTEQELKPLTLEALGHLG [DLC1] | 2.85 ± 0.32 | 2.99 ± 0.21 |  |  |
| SSHSRGPLSWAPCGPIAGSRQALS | 3.42 ± 0.13 | 3.44 ± 0.17 |  |  |
| SSISPGLHSFTDHQRLMKRRKSV [KCNK9] |  |  | 5.64 ± 0.088 | 5.47 ± 0.23 |
| SSKEEQKLIATSNKPAVKLLYNRS [KCTD10] | 3.9 ± 0.27 | 4.08 ± 0.48 |  |  |
| SSNLSLDVLRGNDETIGFEDILND [POMP] | 5.08 ± 0.17 | 4.94 ± 0.32 |  |  |
| SSPRGMVRVCDLLLKKKPPQQQHH [ANKRD17] | 3.2 ± 0.23 | 3.28 ± 0.13 |  |  |
| SSSRDTDWVVVKEPVIKVAAIDNG [PI4K2A] | 4.25 ± 0.1 | 4 ± 0.11 |  |  |
| STASTTSTTNSTAAKPAASITSKP [ZNF207] | 5.15 ± 0.11 | 5.01 ± 0.19 |  |  |
| STNGELNVDDPTGAHSNAPITAHA [CSNK1G1] | 5.39 ± 0.15 | 5.29 ± 0.33 |  |  |
| SVGFQSNEAASLASTGVGVVKVIS [SLC2A12] | 3.68 ± 0.64 | 3.6 ± 0.41 |  |  |
| SVICRSLPEGMGPGESGQPPPAC [ALKBH7] |  |  | 2.87 ± 0.71 | 3.5 ± 0.69 |
| SVSLRKAERLRAELLDLKAGGFSI [MYORG] | 2.25 ± 0.36 | 2.39 ± 0.29 |  |  |
| SWARQESLQERKQALYEYARRRFT [AUP1] | 3.8 ± 0.17 | 3.81 ± 0.12 |  |  |
| SYFDRGAKGGSRLCTPEGWFSCQG [DFFB] | 2.46 ± 0.14 | 2.6 ± 0.18 |  |  |
| SYHDGYGEALGRDHSEHLSGSSYR [RBMY1A1] | 4 ± 0.19 | 4.12 ± 0.35 |  |  |
| SYKDLDVIFGVELPGNEEFQVVKD [TENT5D] | 3.84 ± 0.24 | 3.88 ± 0.099 |  |  |
| SYLDKVRALEEANTELEVKIRDWY [KRT17] | 2.97 ± 0.23 | 3.07 ± 0.32 |  |  |
| TACAVIILTIICYLGLPRLEFYRY [SLC29A1] | 3.04 ± 0.18 | 3.1 ± 0.13 |  |  |
| TAEPFPRLHNLYSTPRCAQQAALP [CBY2] | 2.67 ± 0.2 | 2.66 ± 0.24 |  |  |
| TATREEASTSLPTKPTQGASSASE [CLPTM1] | 5.47 ± 0.34 | 5.4 ± 0.46 |  |  |
| TDEEEGLIWVVGPVLAVVFIICIV [PTPRD] | 2.1 ± 0.4 | 2.07 ± 0.46 |  |  |
| TDEFRELRATVERMGLMKANHVFF [FADS1] | 2.48 ± 0.56 | 2.12 ± 0.21 |  |  |

| Sequence | protein stability index [1] | protein stability index [2] | protein stability index [3] | protein stability index [4] |
| --- | --- | --- | --- | --- |
| TDLDAVRTPEPLEEFPKREDQEGS [MYBL2] | 5.43 ± 0.11 | 5.52 ± 0.21 |  |  |
| TEGAFGLYRGLAPNFMKVIPAVSI [SLC25A25] | 1.88 ± 0.51 | 2.39 ± 0.66 |  |  |
| TEHMKTHTGLKPYECGVCAKKFMW [ZBTB22] | 2.65 ± 0.26 | 2.77 ± 0.34 |  |  |
| TEIANCSLKVKFFDLERENACATK [PLD5] |  | 3.92 ± 0.4 |  |  |
| TELVLSDCMLSEEGATLLLRGLCA [LRRC45] | 2.32 ± 0.3 | 2.32 ± 0.24 |  |  |
| TFEQAIQAASRIIRNEQFAIRRFQ [CDC25B] | 2.38 ± 0.48 | 2.01 ± 0.32 |  |  |
| TFLVFSKAELGALPHDFIDSLEKT [NLN] | 2.13 ± 0.26 | 2.5 ± 0.25 |  |  |
| TFQSHEPEFDYLKSLEIEEKINKI [PPP2R2C] | 4.74 ± 0.17 | 4.81 ± 0.31 |  |  |
| THRDRPSQQQPLRNQVVSSTNGEL [CSNK1G1] | 4.93 ± 0.33 | 4.71 ± 0.36 |  |  |
| THTQIDQQPPRLLIVHIALPSWAD [M1AP] | 2.75 ± 0.59 | 2.68 ± 0.54 |  |  |
| TIEDEDVKARKQEIIKVTEQLIEA [CAMK2D] | 5.25 ± 0.075 | 5.26 ± 0.11 |  |  |
| TIKSHLKSFSMANGMNAVMMHGRS [RAB40C] | 2.54 ± 0.14 | 2.6 ± 0.23 |  |  |
| TKFQELQLAAGRHGDDLKNTKNEI [KRT71] | 4.12 ± 0.39 | 4.28 ± 0.13 |  |  |
| TKVGSFMIRESETKKGFYSLSVRH [SLA] | 2.68 ± 0.37 | 2.66 ± 0.69 |  |  |
| TLICRKLGGVKKSATLRSFEGLMG [TPD52L3] | 2.06 ± 0.16 | 2.34 ± 0.33 |  |  |
| TLPKSLSLPTTAPSNSSSLTLSGI [MYBL2] | 3.87 ± 0.12 | 3.83 ± 0.28 |  |  |
| TLSKSEYMVIEEGGMNHSAFPQTP [KCNA3] | 3.43 ± 0.15 | 3.53 ± 0.28 |  |  |
| TMIRKLEGHHHDVVACDFSPDGAL [WSB1] | 3.25 ± 0.28 | 3.48 ± 0.37 |  |  |
| TPESTKPGPVCQPPVSQSRSLFSS [ANKRD40] | 4.46 ± 0.19 | 4.21 ± 0.21 |  |  |
| TPLHIAAQNNCPAIMNALIEAGAH [FEM1A] | 3.07 ± 0.2 | 3.13 ± 0.23 |  |  |
| TQSDLYKKTQETLSQAGQKTSAAL [TPD52L2] | 4.88 ± 0.067 | 4.93 ± 0.21 |  |  |
| TQTTNDGVCQSMCHDKYTKIFNDF [ZMYND11] | 3.05 ± 0.2 | 3.27 ± 0.12 |  |  |
| TRAADLLVNPLDPRNADKIRVKIA [SRPK2] | 3.64 ± 0.48 | 3.75 ± 0.23 |  |  |

| Sequence | protein stability index [1] | protein stability index [2] | protein stability index [3] | protein stability index [4] |
| --- | --- | --- | --- | --- |
| TREGFTLLHLAVNSNTPVDDFHTN [FEM1B] | 2.85 ± 0.17 | 2.95 ± 0.19 |  |  |
| TRNGEVVTESQKEQRSELDKSSAH [PRPH] | 5.06 ± 0.27 | 5.31 ± 0.4 |  |  |
| TSFNHMDSDKLSGLWSRISHLVLP [TOR1AIP2] | 2.28 ± 0.2 | 2.33 ± 0.2 |  |  |
| TSLFLGNGVLLCFYSQEWYARQHC [SOAT1] | 2.9 ± 0.8 | 2.91 ± 0.32 |  |  |
| TSPSSNNSSEELSSALHLSKGMSI [NECAB1] | 4.26 ± 0.19 | 4.24 ± 0.16 |  |  |
| TSSLRLNWEAPPGAFDSFLLRFGV [TNXB] | 2.06 ± 0.27 | 2.21 ± 0.56 |  |  |
| TSVLDALSTDMVHAASDPSSSSGR [SMOC2] | 4.99 ± 0.19 | 4.96 ± 0.18 |  |  |
| TVEEAKAEKETELSLQKEQLQLKI [TRIM29] | 5.1 ± 0.27 | 5.33 ± 0.3 |  |  |
| TYHVGKQCFFNGVFLGNKRSLSER [SPATS1] | 2.36 ± 0.21 | 2.59 ± 0.22 |  |  |
| VAAETGHTSTARLLLHRGAGKEAM [RIPK4] | 3.6 ± 0.28 | 3.46 ± 0.13 |  |  |
| VDALKSDKKVRTIIIRSEVPGIFC [AUH] | 2.01 ± 0.38 | 2.35 ± 0.73 |  |  |
| VELLKNLTKYPTDRDSIWKCLKFL [INTS4] | 2.63 ± 0.28 | 2.08 ± 0.22 |  |  |
| VEPVCSGLQAQILHCYRDRPHEVL [CHCHD6] | 2.93 ± 0.21 | 2.94 ± 0.5 |  |  |
| VFRVSSDKLALCHLELTRKLQDLI [FCHO1] | 2.28 ± 0.46 | 2.03 ± 0.61 |  |  |
| VFSFGKHYWELDVDNSCDWALGVC [TRIM43] | 2.54 ± 0.085 | 2.54 ± 0.39 |  |  |
| VGIFNTVINPMLNPIIYSFRNPDV [OR3A1] | 2.34 ± 0.48 | 3.03 ± 0.83 |  |  |
| VGVDRAFPLKPMVHRKSCSTGEAG [ZC2HC1C] | 3.74 ± 0.18 | 4.2 ± 0.16 |  |  |
| VHSDLSSIVILDNSPGAYRSHPDN [CTDNEP1] | 3.6 ± 0.15 | 3.72 ± 0.27 |  |  |
| VIFALCWFPLHLSRILKKTVYNEM [EDNRA] | 3 ± 0.64 | 2.92 ± 0.68 |  |  |
| VIKMLVNDNKVLRYLAVLESPIPE [EFHC1] | 2.32 ± 0.31 |  |  |  |
| VKDTDDVPMILVGNKCDLEDERVV [RAP1B] | 4.65 ± 0.45 | 5.02 ± 0.16 |  |  |
| VKKCLELFSELAEDKENYKKFYEA [HSP90AB1] | 2.54 ± 0.34 | 2.74 ± 0.33 |  |  |
| VKPENFLIGRPGNKTQQVIHIIDF [CSNK1G3] | 2.4 ± 0.72 | 2.5 ± 0.34 |  |  |

| Sequence | protein stability index [1] | protein stability index [2] | protein stability index [3] | protein stability index [4] |
| --- | --- | --- | --- | --- |
| VLALFVYVAWNEGSRQWREGKQD [VMA21] |  |  | 2.51 ± 0.49 | 2.85 ± 1.1 |
| VLGPLVALIICYNWLHRRLAGQFL [MOG] | 3.15 ± 0.19 | 2.92 ± 0.13 |  |  |
| VLPCIQQIQRISLNTLTLNVKSEK [FLOT1] | 2.84 ± 0.14 | 2.98 ± 0.24 |  |  |
| VLQALFYLLDRAVDSFETQRNGLV [PTPN9] | 2.45 ± 0.98 | 2.66 ± 0.62 |  |  |
| VLRAEHRGFQEENKALWENNKLKL [CBY2] | 3.83 ± 0.45 | 3.89 ± 0.28 |  |  |
| VLSSTPDHSFSLELGSEVDITEGD [ATF4] | 5.32 ± 0.43 | 5.44 ± 0.11 |  |  |
| VNKITFSEQCYYIFGDLCGNMANL [DVL3] | 2.66 ± 0.38 | 2.36 ± 0.37 |  |  |
| VNPWKREVKLLLSSETPIEGKNMS [APMAP] | 3.44 ± 0.25 | 3.62 ± 0.42 |  |  |
| VNRTTRTNSTPLRAACFDGHLEVV [FEM1A] | 2.9 ± 0.35 | 2.74 ± 0.34 |  |  |
| VPLCSCRMETPKSREITTLANNQC [EHMT1] | 2.62 ± 0.17 | 2.81 ± 0.24 |  |  |
| VPNAKKLRRKEQLWEKLAKQGELP [NOP53] | 3.35 ± 0.33 | 3.51 ± 0.39 |  |  |
| VPSESEPPALQNNLLSPLLTGTES [NFE2L1] | 4.92 ± 0.1 | 5.07 ± 0.18 |  |  |
| VQARMLSSTTILVQWKEPEEPNGQ [PTPRD] | 3.27 ± 0.34 | 3.19 ± 0.35 |  |  |
| VQITGQPNILFYASTVLKSVGFQS [SLC2A12] | 3.12 ± 0.57 | 2.58 ± 0.45 |  |  |
| VQKEHEEYMKNLLKVGGILVMPLE [PCMTD2] | 2.69 ± 0.21 | 2.7 ± 0.17 |  |  |
| VQKNILAAASPYIRTKLNYNPPKD [GAN] | 2.97 ± 0.34 | 3.24 ± 0.38 |  |  |
| VQREKDLPNYNWNSFGLRFGKREA [KISS1] | 3.28 ± 0.12 | 3.19 ± 0.18 |  |  |
| VRTSYQPSSPGRFTKETTQKNFNN [TRIM29] | 3.93 ± 0.15 | 3.88 ± 0.22 |  |  |
| VSDSLTWREFHYIQSKLGIVSLLL [STEAP1] | 2.45 ± 0.54 | 2.18 ± 0.25 |  |  |
| VSLTSPSAPPTSRTSSGNVWVTHE [PPFIA4] | 3.35 ± 0.21 | 3.47 ± 0.32 |  |  |
